Our source for the ratio to parent values is paper PMC5127646 (2016).

The chains are these.
B1: SmN peptide, residues 219-229 (GMRPPPPGIRG) [human] / RBM5 OCRE domain (residues 451-511), wild type [human] (parent complex)
chain 1: GMRPPPPGIRG
chain 2: GAMGTKYAVPDTSTYQYDESSGYYYDPTTGLYYDPNSQYYYNSLTQQYLYWDGEKETYVPAAES

In this experiment the parent is B1. As to the kind of experiment: NMR titration (chemical shift perturbation score); 1:10 ratio of OCRE:peptide; read off a plot.
With chain 1 GMRAPAPGIRG, the ratio to parent was about 0.27.
For chain 1 GMAPPPPGIRG the value was about 0.51; for chain 1 GMEPPPPGIRG, about 0.19.
For chain 1 GMAPPPPGIAG the value was about 0.24.
For chain 1 GMEPPPPGIEG the value was about 0.05; for chain 1 GMRPPPPGIAG, about 0.67.
Regarding chain 1 GMRPPPPGIEG, the ratio to parent was about 0.54.
